Data reported in patent US20190248876A1 (NEW YORK UNIVERSITY, published 2019).

T1: CXCR1 (interleukin 8 receptor alpha chain) (human, UniProt P25024 1-350)
T1 construct: whole, on cells
T1 sequence: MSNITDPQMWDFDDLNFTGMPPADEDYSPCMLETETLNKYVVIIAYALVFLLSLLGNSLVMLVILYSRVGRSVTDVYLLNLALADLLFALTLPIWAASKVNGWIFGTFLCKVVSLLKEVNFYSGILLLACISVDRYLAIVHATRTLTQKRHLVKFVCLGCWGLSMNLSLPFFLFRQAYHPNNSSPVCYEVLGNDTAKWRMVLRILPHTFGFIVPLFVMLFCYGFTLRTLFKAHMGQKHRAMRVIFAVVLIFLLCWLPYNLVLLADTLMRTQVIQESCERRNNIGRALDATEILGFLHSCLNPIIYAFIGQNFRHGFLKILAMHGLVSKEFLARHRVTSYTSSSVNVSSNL

T2: CXCR2 (interleukin 8 receptor beta chain) (human, UniProt P25025 1-360)
T2 construct: whole, on cells
T2 sequence: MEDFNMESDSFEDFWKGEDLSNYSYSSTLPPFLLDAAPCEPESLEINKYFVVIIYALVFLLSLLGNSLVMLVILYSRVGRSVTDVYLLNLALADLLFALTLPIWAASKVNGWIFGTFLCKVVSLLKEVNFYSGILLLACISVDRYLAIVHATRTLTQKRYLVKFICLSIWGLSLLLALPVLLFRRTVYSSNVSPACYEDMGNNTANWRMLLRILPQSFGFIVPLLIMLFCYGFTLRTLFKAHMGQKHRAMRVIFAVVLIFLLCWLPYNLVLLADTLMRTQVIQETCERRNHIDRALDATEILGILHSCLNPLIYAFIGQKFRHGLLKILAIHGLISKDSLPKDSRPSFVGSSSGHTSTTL

B1: GFP-LukE (green fluorescent protein-fused LukE) (other)
chain: NTNIENIGDGAEVIKRTEDVSSKKWGVTQNVQFDFVKDKKYNKDALIVKMQGFINSRTSFSDVKGSGYELTKRMIWPFQYNIGLTTKDPNVSLINYLPKNKIETTDVGQTLGYNIGGNFQSAPSIGGNGSFNYSKTISYTQKSYVSEVDKQNSKSVKWGVKANEFVTPDGKKSAHDRYLFVQSPNGPTGSAREYFAPDNQLPPLVQSGFNPSFITTLSHEKGSSDTSEFEISYGRNLDITYATLFPRTGIYAERKHNAFVNRNFVVRYEVNWKTHEIKVKGHN
notes: also called LukE-GFP
B2: His-LukE (N-terminal 6xHis-tagged Leukocidin E, S. aureus Newman) (other)
chain: B1 chain

Assays:
[1] = target: T1, CXCR1 (interleukin 8 receptor alpha …); assay: flow cytometry, GFP-toxin on primary human PMNs (CXCR1/CXCR2+ cells)
[2] = target: T2, CXCR2 (interleukin 8 receptor beta …); assay: as above
[3] = target: T1, CXCR1 (interleukin 8 receptor alpha …); assay: legend of FIGS. 6A-6E: flow cytometry on PMNs and pulldown
[4] = target: T2, CXCR2 (interleukin 8 receptor beta …); assay: as above

| Binder | binding result [1] | binding result [2] | binding result [3] | binding result [4] |
| --- | --- | --- | --- | --- |
| B1 | binds | binds | – | – |
| B2 | – | – | binds | binds |
